Patent publication US20160319321

Assays:
[1] = biological target: T1, Lys(Dnp)-LEGDR-HAEGT-Lys(Abz)amide
T1 chain: KLEGDRHAEGTK

[2] = biological target: T2, Lys(Dnp)-DEGDR-HSQGT-Lys(Abz)amide
T2 chain: KDEGDRHSQGTK

[3] = biological target: T3, DVEPGQPLYDDDDK-[Arg34]GLP-1(9-37)
T3 chain: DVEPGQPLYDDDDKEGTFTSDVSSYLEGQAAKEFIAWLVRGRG

[4] = biological target: T4, Lys(Dnp)-DDGDR-QGTFT-Lys(Abz)amide
T4 chain: KDDGDRQGTFTK

[5] = biological target: T5, Lys(Dnp)-EWGDR-HAEGT-Lys(Abz)amide
T5 chain: KEWGDRHAEGTK

[6] = biological target: T6, Lys(Dnp)-DHGDR-HAEGT-Lys(Abz)amide
T6 chain: KDHGDRHAEGTK

[7] = biological target: T7, DVKEGQPLYDDDDK-[Arg34]GLP-1(9-37)
T7 chain: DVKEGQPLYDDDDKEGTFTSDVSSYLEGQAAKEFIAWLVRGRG

[8] = biological target: T8, Lys(Dnp)-EYGDR-EGTFT-Lys(Abz)amide
T8 chain: KEYGDREGTFTK

[9] = biological target: T9, Lys(Dnp)-DEGDR-EGTFT-Lys(Abz)amide
T9 chain: KDEGDREGTFTK

[10] = biological target: T10, DVEPGQPLYDEGDR-[Arg34]GLP-1(9-37)
T10 chain: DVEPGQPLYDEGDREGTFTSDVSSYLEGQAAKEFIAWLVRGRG

[11] = biological target: T11, DVKPGQPLADDDDK-[Arg34]GLP-1(9-37)
T11 chain: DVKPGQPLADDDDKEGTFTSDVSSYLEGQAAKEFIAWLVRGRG

[12] = biological target: T12, Lys(Dnp)-NYTDRHAEGT-Lys(Abz)amide
T12 chain: KNYTDRHAEGTK

[13] = biological target: T13, Lys(Dnp)-EGGDR-EGTFT-Lys(Abz)amide
T13 chain: KEGGDREGTFTK

[14] = biological target: T14, Lys(Dnp)-SSGDRHAEGT-Lys(Abz)amide
T14 chain: KSSGDRHAEGTK

[15] = biological target: T15, Lys(Dnp)-DFGDR-EGTFT-Lys(Abz)amide
T15 chain: KDFGDREGTFTK

[16] = biological target: T16, Lys(Dnp)-EDGDR-EGTFT-Lys(Abz)amide
T16 chain: KEDGDREGTFTK

[17] = biological target: T17, DVKPGQPEYDDDDK-[Arg34]GLP-1(9-37)
T17 chain: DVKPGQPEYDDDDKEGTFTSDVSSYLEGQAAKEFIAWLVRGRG

[18] = biological target: T18, Lys(Dnp)-MDEGDR-HAEGT-Lys(Abz)amide
T18 chain: KMDEGDRHAEGTK

[19] = biological target: T19, Lys(Dnp)-GDEGDR-HAEGT-Lys(Abz)amide
T19 chain: KGDEGDRHAEGTK

[20] = biological target: T20, Lys(Dnp)-DFGDR-HGEGT-Lys(Abz)amide
T20 chain: KDFGDRHGEGTK

[21] = biological target: T21, Lys(Dnp)-QDEGDR-HAEGT-Lys(Abz)amide
T21 chain: KQDEGDRHAEGTK

[22] = biological target: T22, Lys(Dnp)-DLGDR-HGTFT-Lys(Abz)amide
T22 chain: KDLGDRHGTFTK

[23] = biological target: T23, Lys(Dnp)-ELGDR-HGEGT-Lys(Abz)amide
T23 chain: KELGDRHGEGTK

[24] = biological target: T24, Lys(Dnp)-IMGDRHAEGT-Lys(Abz)amide
T24 chain: XIMGDRHAEGTX

[25] = biological target: T25, Lys(Dnp)-DDGDR-EGTFT-Lys(Abz)amide
T25 chain: KDDGDREGTFTK

[26] = biological target: T26, Lys(Dnp)-YDEGDR-HAEGT-Lys(Abz)amide
T26 chain: KYDEGDRHAEGTK

[27] = biological target: T27, Lys(Dnp)-DDGDR-HGTFT-Lys(Abz)amide
T27 chain: KDDGDRHGTFTK

[28] = biological target: T28, Lys(Dnp)-DGGDR-HAEGT-Lys(Abz)amide
T28 chain: KDGGDRHAEGTK

[29] = biological target: T29, Lys(Dnp)-DEGDR-HGEGT-Lys(Abz)amide
T29 chain: KDEGDRHGEGTK

[30] = biological target: T30, Lys(Dnp)-EYGDR-HGEGT-Lys(Abz)amide
T30 chain: KEYGDRHGEGTK

[31] = biological target: T31, Lys(Dnp)-FDEGDR-HAEGT-Lys(Abz)amide
T31 chain: KFDEGDRHAEGTK

[32] = biological target: T32, Lys(Dnp)-DTGDR-HAEGT-Lys(Abz)amide
T32 chain: KDTGDRHAEGTK

[33] = biological target: T33, Lys(Dnp)-QEGDR-EGTFT-Lys(Abz)amide
T33 chain: KQEGDREGTFTK

[34] = biological target: T34, Lys(Dnp)-DWGDR-EGTFT-Lys(Abz)amide
T34 chain: KDWGDREGTFTK

[35] = biological target: T35, Lys(Dnp)-RDEGDR-HAEGT-Lys(Abz)amide
T35 chain: KRDEGDRHAEGTK

[36] = biological target: T36, Lys(Dnp)-DSGDR-HGTFT-Lys(Abz)amide
T36 chain: KDSGDRHGTFTK

[37] = biological target: T37, DVKPGEPLYDDDDK-[Arg34]GLP-1(9-37)
T37 chain: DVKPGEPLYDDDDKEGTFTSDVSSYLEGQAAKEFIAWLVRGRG

[38] = biological target: T38, Lys(Dnp)-DYGDR-EGTFT-Lys(Abz)amide
T38 chain: KDYGDREGTFTK

[39] = biological target: T39, Lys(Dnp)-YEGDR-HAEGT-Lys(Abz)amide
T39 chain: KYEGDRHAEGTK

[40] = biological target: T40, Lys(Dnp)-DDEGDR-HAEGT-Lys(Abz)amide
T40 chain: KDDEGDRHAEGTK

[41] = biological target: T41, Lys(Dnp)-ESGDR-HGEGT-Lys(Abz)amide
T41 chain: KESGDRHGEGTK

B1: bovine Enterokinase light chain variant (C112A, L134K, I135K) (protein)
chain: IVGGSDSREGAWPWVVALYFDDQQVCGASLVSRDWLVSAAHCVYGRNMEPSKWKAVLGLHMASNLTSPQIETRLIDQIVINPHYNKRRKNNDIAMMHLEMKVNYTDYIQPIALPEENQVFPPGRICSIAGWGAKKYQGSTADVLQEADVPLLSNEKCQQQMPEYNITENMVCAGYEAGGVDSCQGDSGGPLMCQENNRWLLAGVTSFGYQCALPNRPGVYARVPRFTEWIQSFLH
Activity (%) [1]: 398%
Activity (%) [2]: 621%
Activity (%) [3]: 203%
Activity (%) [4]: 338%
Activity (%) [5]: 456%
Activity (%) [6]: 545%
Activity (%) [7]: 178%
Activity (%) [8]: 353%
Activity (%) [9]: 890%
Activity (%) [10]: 951%
Activity (%) [11]: 134%
Activity (%) [12]: 59%
Activity (%) [13]: 380%
Activity (%) [14]: 191%
Activity (%) [15]: 419%
Activity (%) [16]: 505%
Activity (%) [17]: 158%
Activity (%) [18]: 209%
Activity (%) [19]: 267%
Activity (%) [20]: 253%
Activity (%) [21]: 141%
Activity (%) [22]: 216%
Activity (%) [23]: 502%
Activity (%) [24]: 125%
Activity (%) [25]: 428%
Activity (%) [26]: 153%
Activity (%) [27]: 402%
Activity (%) [28]: 431%
Activity (%) [29]: 736%
Activity (%) [30]: 338%
Activity (%) [31]: 200%
Activity (%) [32]: 434%
Activity (%) [33]: 411%
Activity (%) [34]: 410%
Activity (%) [35]: 222%
Activity (%) [36]: 172%
Activity (%) [37]: 162%
Activity (%) [38]: 373%
Activity (%) [39]: 377%
Activity (%) [40]: 113%
Activity (%) [41]: 221%
